Tests used:
[1] = test system: Nc1ccn([C@@H]2O[C@H](CO)[C@@H](O)C2(F)F)c(=O)n1; assay: purified protein, by the assay type; details: other: nucleoside as substrate, pH 7.5
[2] = test system: Nc1ccn([C@H]2CC[C@@H](CO)O2)c(=O)n1; assay: purified protein, by the assay type; details: other: nucleoside as substrate, dCK 0.4 μM, ATP•Mg 1 mM, 37° C., pH 7.5
[3] = dCK 0.4 μM, ATP•Mg 1 mM, 37° C.

Chain of A100V/R104M/D133A-dCK (Homo sapiens; A100V/D133A/R104M) (chain, as listed by the source A100V R104M D133A A100V D133A R104M): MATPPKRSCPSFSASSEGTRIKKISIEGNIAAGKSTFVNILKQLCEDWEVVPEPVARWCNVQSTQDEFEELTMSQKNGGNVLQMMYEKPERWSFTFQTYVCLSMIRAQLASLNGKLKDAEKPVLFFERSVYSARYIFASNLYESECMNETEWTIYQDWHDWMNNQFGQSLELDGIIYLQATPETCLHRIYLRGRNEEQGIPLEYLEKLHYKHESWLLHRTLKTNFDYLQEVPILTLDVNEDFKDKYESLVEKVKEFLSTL
Chain of Wild Type dCK (Homo sapiens) (chain, as listed by the source): as the sequence (chain, as listed by the source A100V R104M D133A A100V D133A R104M) above, with V100A, M104R, A133D counted along it

Row | Substance | Km ([1]; triple mutant, 37.0 °C) | kcat ([1]; triple mutant, 37.0 °C) | kcat/Km ([1]; triple mutant, 37.0 °C) | Km [2] | kcat [2] | kcat/Km [2] | Km [1, 3] | kcat [1, 3] | kcat/Km [1, 3]
1 | A100V/R104M/D133A-dCK (Homo sapiens; A100V/D133A/R104M) | 50 µM | 3.52 s⁻¹ | 70400 M⁻¹ s⁻¹ | – | – | – | – | – | –
2 | Wild Type dCK (Homo sapiens) | – | – | – | 406.8 µM | 0.18 s⁻¹ | 400 M⁻¹ s⁻¹ | 22.0 µM | 0.37 s⁻¹ | 16800 M⁻¹ s⁻¹

Reference: patent publication US7858745B2, “Use of specifically engineered enzymes to enhance the efficacy of prodrugs” (The Board of Trustees of the University of Illinois, priority 2003, dated 2010)
